Experimental data reported in US20150110786A1 (YEDA RESEARCH AND DEVELOPMENT, published 2015).

T1: Recombinant human QSOX1 (HsQSOX1 33-546) (human, UniProt O00391 33-546, bound FAD cofactor)
T1 sequence: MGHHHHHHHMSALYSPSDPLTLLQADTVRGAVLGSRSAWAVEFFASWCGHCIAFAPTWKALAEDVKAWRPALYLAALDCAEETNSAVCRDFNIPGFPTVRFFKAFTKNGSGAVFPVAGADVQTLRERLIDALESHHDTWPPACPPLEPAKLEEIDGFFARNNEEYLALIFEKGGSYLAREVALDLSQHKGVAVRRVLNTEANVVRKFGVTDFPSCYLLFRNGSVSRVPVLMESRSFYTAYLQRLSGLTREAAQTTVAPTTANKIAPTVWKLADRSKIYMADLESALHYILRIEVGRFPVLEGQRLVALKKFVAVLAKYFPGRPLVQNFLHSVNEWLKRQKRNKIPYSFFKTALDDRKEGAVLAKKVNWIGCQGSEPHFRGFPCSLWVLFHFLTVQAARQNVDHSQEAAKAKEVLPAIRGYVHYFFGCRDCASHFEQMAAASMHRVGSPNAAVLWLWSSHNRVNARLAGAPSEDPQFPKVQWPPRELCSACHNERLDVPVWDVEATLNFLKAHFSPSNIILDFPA

T2: HsQSOX1Erv (carboxy-terminal fragment of human QSOX1, psi-Erv and Erv domains) (human, UniProt O00391 286-546, limits assumed, bound FAD cofactor)
T2 construct: domain: carboxy-terminal fragment, HsQSOX1Erv (two Erv-fold domains); also called HsQSOX1 carboxy-terminal fragment
T2 sequence (looked up): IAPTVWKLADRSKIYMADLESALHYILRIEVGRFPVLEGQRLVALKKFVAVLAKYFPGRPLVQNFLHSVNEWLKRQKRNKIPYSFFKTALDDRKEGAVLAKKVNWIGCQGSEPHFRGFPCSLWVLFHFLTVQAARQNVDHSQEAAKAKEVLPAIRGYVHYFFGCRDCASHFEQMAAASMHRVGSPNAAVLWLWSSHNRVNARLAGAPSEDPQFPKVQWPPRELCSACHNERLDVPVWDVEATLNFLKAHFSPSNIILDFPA


Assays:
[1] = target: T1, Recombinant human QSOX1 (HsQSOX1 33-546); assay: cell-based or functional assay
[2] = target: T1, Recombinant human QSOX1 (HsQSOX1 33-546); assay: calculated from the IC50 of the rdRNase oxidation colorimetric assay with the equation for competitive inhibition
Procedure: Reactions of 100 μL volume were conducted in 96 well plates (Nunc). Reduced and denatured RNaseA (Sigma) was used as a model substrate and was prepared as follows. Ten mg RNase was dissolved in 1 ml of 20 mM phosphate buffer, pH 6.5, 6 M GuHCl, and 100 mM DTT, and incubated at 37° C. for 1 hr. The protein was desalted on a PD-10 column (GE Healthcare) equilibrated with DDW, and its thiol content was determined by DTNB absorbance at 412 nm. 50 nM recombinant HsQSOX1 and various concentrations of monoclonal antibody clones were incubated for 30 min at RT. Reactions were initiated with the addition of 200 μM RNase thiols and were quenched after 25 min with 1 mM DTNB. Absorbance was measured at 405 nm in a microplate reader.

[3] = target: T1, Recombinant human QSOX1 (HsQSOX1 33-546); assay: oxygen consumption assay, 25 nM HsQSOX1, 1-250 nM MAb492.1, 200 µM DTT, fit to a tight-binding inhibitor model
Procedure: A Clarke-type oxygen electrode (Hansatech Instruments) was used to monitor changes in dissolved oxygen concentrations as a measure of HsQSOX1 activity. […] Reactions were started by injection of dithiothreitol (DTT) to a concentration of 200 μM in the electrode reaction chamber. […] The ratios of the initial rates of HsQSOX1 in the presence and absence of inhibitor were plotted as a function of inhibitor concentration.
This assay allows direct determination of initial velocities and not just degree of activity.

[4] = target: T2, HsQSOX1Erv (carboxy-terminal fragment …); assay: ELISA

IC50, inhibition of rdRNase oxidation (DTNB colorimetric assay), 50 nM HsQSOX1 [1] [nM]	Ki [2] [nM]	Ki [3] [nM]	IC50, inhibition of rdRNase oxidation (DTNB colorimetric assay), 250 nM HsQSOX1 [1] [nM]	binding result [4]	Binder
250	130	–	–	–	scFv492.1 (scFv, also called single chain antibody fragment of MAb492.1; not shown: thrombin-cleavable His6-tag at the amino terminus) scFv: QVQLKQSGPGLVAPSQSLSITCTVSGFSLTGYGVNWVRQSPGKGLEWLGMIWGDGRTDYKSALKSRLSITKDNSKSQVFLKMNSLQTDDTARYFCASDYYGSGSFAYWGQGTLVTVSAGGGGSGGGGSGGGGSDVVMTQTHKFMSTSVGDRVSITCKASQDVSTAVAWYQQKSGQSPKLLIHSASYRYTGVPDRFTGSGSGTDFTFTISSVQAEDLAVYYCQQHYSIPLTFGAGTKLELK
60	–	1	240	no binding	MAb492.1 (antibody, V domains shown, also called anti-QSOX1 monoclonal antibody; QSOX1-specific monoclonal antibody) VH: QVQLKQSGPGLVAPSQSLSITCTVSGFSLTGYGVNWVRQSPGKGLEWLGMIWGDGRTDYKSALKSRLSITKDNSKSQVFLKMNSLQTDDTARYFCASDYYGSGSFAYWGQGTLVTVSA VL: DVVMTQTHKFMSTSVGDRVSITCKASQDVSTAVAWYQQKSGQSPKLLIHSASYRYTGVPDRFTGSGSGTDFTFTISSVQAEDLAVYYCQQHYSIPLTFGAGTKLELK
100	–	–	–	–	Fab492.1 (Fab fragment of MAb492.1) (Fab, V domains shown) VH: QVQLKQSGPGLVAPSQSLSITCTVSGFSLTGYGVNWVRQSPGKGLEWLGMIWGDGRTDYKSALKSRLSITKDNSKSQVFLKMNSLQTDDTARYFCASDYYGSGSFAYWGQGTLVTVSA VL: DVVMTQTHKFMSTSVGDRVSITCKASQDVSTAVAWYQQKSGQSPKLLIHSASYRYTGVPDRFTGSGSGTDFTFTISSVQAEDLAVYYCQQHYSIPLTFGAGTKLELK
